According to US20250145690A1 (US Dept. of Health and Human Services, published 2025):
Numbering of substitutions follows the chain as printed.

T1: HCoV-NL63 spike protein (Sino Biological 40604-V08B) (HCoV-NL63, UniProt Q6Q1S2 19-1296)
T1 sequence: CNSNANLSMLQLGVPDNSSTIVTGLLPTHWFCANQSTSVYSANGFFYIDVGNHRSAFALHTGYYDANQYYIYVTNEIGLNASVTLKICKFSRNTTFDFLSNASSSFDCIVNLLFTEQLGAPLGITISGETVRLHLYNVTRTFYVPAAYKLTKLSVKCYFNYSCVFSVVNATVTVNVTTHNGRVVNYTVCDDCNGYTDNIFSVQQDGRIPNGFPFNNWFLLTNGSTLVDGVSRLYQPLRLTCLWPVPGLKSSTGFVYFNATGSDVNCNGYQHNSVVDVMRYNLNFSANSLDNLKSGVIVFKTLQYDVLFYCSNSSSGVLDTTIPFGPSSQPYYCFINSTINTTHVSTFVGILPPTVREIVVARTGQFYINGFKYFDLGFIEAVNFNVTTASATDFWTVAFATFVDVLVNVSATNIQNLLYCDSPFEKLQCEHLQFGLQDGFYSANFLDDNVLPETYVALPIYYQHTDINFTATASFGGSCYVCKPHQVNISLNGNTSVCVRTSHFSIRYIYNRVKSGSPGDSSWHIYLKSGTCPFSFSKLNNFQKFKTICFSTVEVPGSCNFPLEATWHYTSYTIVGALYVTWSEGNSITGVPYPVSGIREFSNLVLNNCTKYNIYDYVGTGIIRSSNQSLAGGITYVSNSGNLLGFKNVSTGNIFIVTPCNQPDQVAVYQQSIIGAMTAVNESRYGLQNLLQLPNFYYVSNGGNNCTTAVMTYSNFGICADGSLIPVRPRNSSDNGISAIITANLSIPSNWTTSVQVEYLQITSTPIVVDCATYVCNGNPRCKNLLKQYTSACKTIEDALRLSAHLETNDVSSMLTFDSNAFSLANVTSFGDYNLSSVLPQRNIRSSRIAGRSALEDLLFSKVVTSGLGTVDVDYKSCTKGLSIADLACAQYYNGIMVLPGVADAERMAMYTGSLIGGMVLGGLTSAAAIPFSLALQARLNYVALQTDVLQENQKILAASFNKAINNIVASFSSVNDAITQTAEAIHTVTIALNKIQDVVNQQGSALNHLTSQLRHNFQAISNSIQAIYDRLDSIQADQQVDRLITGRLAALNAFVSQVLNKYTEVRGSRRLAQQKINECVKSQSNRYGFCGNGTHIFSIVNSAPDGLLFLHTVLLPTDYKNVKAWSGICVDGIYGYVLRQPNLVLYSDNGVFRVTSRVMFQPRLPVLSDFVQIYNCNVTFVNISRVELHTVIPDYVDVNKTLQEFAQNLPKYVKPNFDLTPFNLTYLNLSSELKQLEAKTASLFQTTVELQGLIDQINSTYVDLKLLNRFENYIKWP

B1: COV91-27 (antibody, V domains shown)
VH: QVQLVESGGGVVHPGGSLRLSCAASGFTFSDFAMNWVRQAPGEGLQWVAIISYDGRNKHFAASVRGRFTISRDNSKNTMFLQMSSLRAEDTAIYYCATLGGWFEEASPTYWGRGTLVTVSS
VL: EVVLTQSPAIVSLSPGERATLSCRASQSVGSRLAWHQQKPGLAPRVLIYDASNRATGIPARFSGSGSGTDFTLTISSIEPEDSAVYYCQQRGDWPLITFGQGTRLEIK
B2: COV89-22 (antibody, V domains shown)
VH: QEQLVQSGAEVKKPGASVKVSCKSSGFTFSYFYLHWVRQAPGQGLEWMGIINPRGDGTRYAQKFQGRVTMTRDASTGTLYMELRSLRSEDTAVYYCARGADHGAFDIWGQGTMVTVSS
VL: EIVLTQSPGTLSLSPGERATLSCRASQSVRRNYFAWYQQKRGQAPRLLIYDASTRATGIPDRFSGSGSGTDFTLTISRLEPEDFAVYYCQQYDSSPPMYIFGQGTKLEIK
B3: COV57-03 (antibody, V domains shown)
VH: QVHLVESGGGVVQPGRSLRLSCAASGFTFSSFGMHWVRQAPGKGLEWVAVISDDGNNKFYADSVKGRFSISRDNSKNTLYLQMNSLRAEDTAVYYCVRAFRNSNWATGEYFDYWGQGTLVTVSS
VL: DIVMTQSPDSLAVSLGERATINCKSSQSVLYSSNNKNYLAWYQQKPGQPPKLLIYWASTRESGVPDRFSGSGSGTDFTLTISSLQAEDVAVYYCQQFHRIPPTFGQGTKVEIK
B4: COV57-04 (antibody, V domains shown)
VH: B3 VH with H3Q, S31N, K58E, D62G, A88P
VL: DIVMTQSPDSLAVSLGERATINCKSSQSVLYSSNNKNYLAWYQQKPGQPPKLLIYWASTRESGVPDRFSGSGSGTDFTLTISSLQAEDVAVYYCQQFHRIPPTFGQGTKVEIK
B5: COV77-05 (antibody, V domains shown)
VH: QMQLHESGPGLVKPSQTLSLTCAVSGGSISSDGYYWNWVRQHPGKGLELIAYIYYNGRPYYNPSLRSRVNISLDTSMNQFSLRMKSLTAADTAVYYCARGRLGYCAGGSCFLESFDYWGQGALVTVSS
VL: EIVMTQSPATLSVSPGETATLSCRASESISSNLAWYQQKPGQAPRLLIYGASTRATGIPARFSGSGSGTEFALTISSLQAEDFAVYSCQQYHNWLLTFGGGTKVEIK
B6: COV77-39 (antibody, V domains shown)
VH: RVQLQESGPGLVKPSETLSLTCTVSGGSITDDYWNWIRQPPGKGLEWIGYVHDSGTTNYNPSLKSRVTLSLHTSGNKFSLRLTSVTAADTAMYYCARTTTTFPFDSWGQGTLVIVSS
VL: SYELTQPPSVSVSLGQMARITCSGEALPKKYVYWYQQKPGQFPVLVIYKDRERPSGIPERFSGSSSGTIVTLTISGVQAEDEADYYCLSVDSTANWVFGGGTKLTVL
B7: COV77-42 (antibody, V domains shown)
VH: QVYLQESGPGLVKPSQTLSLTCAVSGGSIRSDGYYWTWIRQHPGKGLEWIGNTYYNGNTYYNPSLRSRVTTSLDTSKNQFSLKVVSMTGADTAVYYCARGRLGFCAGGACFLDTLDYWGQGTLVTVSS
VL: EIVMTQSPVTLSVSPGERVTLSCRADQSVNNNLAWYQQKPGQAPRLLIHGASTRATGIPARFSGSGSGTEFTLTISSLQSEDFAIYYCQQYYNWLLTFGGGTKLEIK
B8: COV44-25 (antibody, V domains shown)
VH: QVQLVDSGGGAVQPGTSLRLSCAASGFTFNTYAFHWVRQAPGKGLEWVAVISDDGNNKYYADSVKGRFTISRDDSKNTLSLQMDSLRVEDAAVYFCARGSYNSNWSLGEYFDYWGQGSLVTVSS
VL: DIVMTQSPDSLPVSLGERATINCKSSQSVLHSSNNKNYLAWYQQKPGQSPKLLISWASTRESGVPDRFSGSGSGTHFTLTISSLRAEDVAVYYCLQYFNNQYTFGQGTKLEIK
B9: COV30-80 (antibody, V domains shown)
VH: QVQLVESGGGVVQPGRSLRLSCAASGFTFSSYAMHWVRQAPGKGLEWVAVISYDGNNAFYADSVKGRFTISRDNSKNTVYVQMDSLRAEETAVYYCARAGYNSNWDLGDALDIWGQGTMVTVSS
VL: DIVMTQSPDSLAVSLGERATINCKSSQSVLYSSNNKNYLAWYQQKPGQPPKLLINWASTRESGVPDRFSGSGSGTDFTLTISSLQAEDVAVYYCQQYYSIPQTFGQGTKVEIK
B10: COV30-35 (antibody, V domains shown)
VH: QVQLQESGPGQVKPSGTLSLTCAVSGGSINSSNWWSWVRQPPGKGLEWIGEIFHSGNTNYKPSLESRVTISFDKSKKELSLRLTSVTAADTAVYYCATLFCSGGTCYLGDWGQGTLVTVSS
VL: EIVLTQSPGTLSVSPGQRATLSCRASESVSSRYVAWYQQKPGQAPRLIIYGASSRATGIPDRFSGSGSGTEFILSISRLEPEDSAVYYCQQYGSSPTFGGGTKVEIK
B11: COV44-79 (antibody, V domains shown)
VH: QVQLVESGGGVVQPGRSLRLSCAASGLTFSGYAMHWVRQAPGKGLEWVAVISRDARNKYYADSVKGRFTISRDNSKKTVYLEMNSLRVEDTAVYYCAILIIPGITEPGSPDALDIWGQGTMVSVSS
VL: DIQMTQSPSSMSASVGDRVTITCRASQDISKWLAWYQQRPGKAPKLLIYAASSLQSGVPSRFSGSGSGTDFTLTISSLQPEDFATYYCQQASSFPWSITFGQGTRLEIR
B12: COV78-36 (antibody, V domains shown)
VH: EVQLVQSGAEVKKPGESLRISCKGSGYSFSNSWITWVRQMPGKGLEWVGRIDTRDSRTAYSPSFEGHVFFSADRSSDTVYVQWRSLRASDTAVYYCTTGAGVVIAASYFWGQGTLVTVSS
VL: QSALTQPPSASGSPGQPVTISCTGTSSDVGGYEYVSWYQQLPGKVPTLIIHEVSKRPSGVPDRFSGSKSGNTASLTVSGLQAEDEADYYCSSYSADSSIIFGGGTKLTVL
B13: COV44-62 (antibody, V domains shown)
VH: QMQLMQSGAEVKKPGASVTVSCKASGDTFSDYRIHWVRQAPGQGLEWMGRMNPKSGDTNFAQKFQGRVTMTRDMSINTAYMTLSGLTFDDTALYYCASLLIVGGFDPLDDFEVWGQGTMVTISS
VL: QSALTQPPSASGSPGQSVTISCSGTSSDVGGYNFVSWYQHHPGKAPKILIYEVTKRPSGVPDRFSGSKSGNTASLTVSGLQAEDEADYYCSSYGGTNNLLFGGGTKLTVL
B14: COV77-04 (antibody, V domains shown)
VH: QVRLQESGPGLVKPSETLSVTCTVSGVSISNYYWSWIRQPPGKGLEWIGYISDTGSTNYSPSLQSRVTISVDMSKNQVSLEVTSVTATDTAVYYCARTTTSVPFDYWGKGVLVTVSS
VL: SYELTQPPSVSVSPGQVARITCSGEALPKKYAYWYQHKPGQFPLLVIHKDSERPSGIPERFSGSSSGTVVTLTISGVQAEDEADYFCLSTDGSTTWVFGGGTKLTVL

molecular target: SARS-CoV-2 spike N-terminal domain (NTD), recombinant (SARS-CoV-2, UniProt P0DTC2 14-305); test: bead flow cytometry, AUC minus CD4

Binder	binding result
B1	no binding (tested: 200 µg/mL)
B2	no binding (tested: 200 µg/mL)
B3	no binding (tested: 200 µg/mL)
B4	no binding (tested: 200 µg/mL)
B5	no binding (tested: 200 µg/mL)
B6	no binding (tested: 200 µg/mL)
B7	no binding (tested: 200 µg/mL)
B8	no binding (tested: 200 µg/mL)
B9	no binding (tested: 200 µg/mL)
B10	no binding (tested: 200 µg/mL)
B11	no binding (tested: 200 µg/mL)
B12	no binding (tested: 200 µg/mL)
B13	no binding (tested: 200 µg/mL)
B14	no binding (tested: 200 µg/mL)

molecular target: SARS-CoV-2 spike receptor binding domain (RBD), recombinant (SARS-CoV-2, UniProt P0DTC2 319-541); test: bead flow cytometry, AUC minus CD4

Binder	binding result
B3	no binding (tested: 200 µg/mL)
B4	no binding (tested: 200 µg/mL)
B5	no binding (tested: 200 µg/mL)
B6	no binding (tested: 200 µg/mL)
B7	no binding (tested: 200 µg/mL)
B8	no binding (tested: 200 µg/mL)
B9	no binding (tested: 200 µg/mL)
B10	no binding (tested: 200 µg/mL)
B12	no binding (tested: 200 µg/mL)
B14	no binding (tested: 200 µg/mL)

molecular target: T1, HCoV-NL63 spike protein (Sino …); test: bead flow cytometry, AUC minus CD4

Binder	binding result
B2	no binding (tested: 200 µg/mL)
B5	no binding (tested: 200 µg/mL)
B7	no binding (tested: 200 µg/mL)
B10	no binding (tested: 200 µg/mL)
